Experimental data as given in patent US20220204643A1 (published 2022).

Columns and labels:
[1] = molecular target: T1, BAR/IMD domain containing adaptor protein 2, transcript variant 3 (human, UniProt Q9UQB8 1-511)
T1 construct: HuProt array protein, full-length recombinant from yeast; also called BAIAP2
T1 sequence: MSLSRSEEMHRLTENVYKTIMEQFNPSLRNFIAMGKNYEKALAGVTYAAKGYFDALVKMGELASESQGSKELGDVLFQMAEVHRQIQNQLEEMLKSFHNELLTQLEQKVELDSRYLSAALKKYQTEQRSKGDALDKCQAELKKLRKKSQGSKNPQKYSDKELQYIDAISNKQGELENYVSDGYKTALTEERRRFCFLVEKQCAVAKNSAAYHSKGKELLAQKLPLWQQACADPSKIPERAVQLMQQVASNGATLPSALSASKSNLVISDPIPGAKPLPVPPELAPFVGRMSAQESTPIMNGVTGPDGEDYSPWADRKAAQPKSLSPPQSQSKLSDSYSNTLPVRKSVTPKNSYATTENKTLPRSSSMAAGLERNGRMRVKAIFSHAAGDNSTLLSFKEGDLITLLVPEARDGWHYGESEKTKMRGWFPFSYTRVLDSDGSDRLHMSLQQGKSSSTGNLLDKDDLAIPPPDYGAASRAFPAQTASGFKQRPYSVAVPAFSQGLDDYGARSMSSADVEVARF

[2] = molecular target: T2, homeobox and leucine zipper encoding (human, UniProt Q8IX15 25-550)
T2 construct: HuProt array protein, full-length recombinant from yeast; also called HOMEZ
T2 sequence: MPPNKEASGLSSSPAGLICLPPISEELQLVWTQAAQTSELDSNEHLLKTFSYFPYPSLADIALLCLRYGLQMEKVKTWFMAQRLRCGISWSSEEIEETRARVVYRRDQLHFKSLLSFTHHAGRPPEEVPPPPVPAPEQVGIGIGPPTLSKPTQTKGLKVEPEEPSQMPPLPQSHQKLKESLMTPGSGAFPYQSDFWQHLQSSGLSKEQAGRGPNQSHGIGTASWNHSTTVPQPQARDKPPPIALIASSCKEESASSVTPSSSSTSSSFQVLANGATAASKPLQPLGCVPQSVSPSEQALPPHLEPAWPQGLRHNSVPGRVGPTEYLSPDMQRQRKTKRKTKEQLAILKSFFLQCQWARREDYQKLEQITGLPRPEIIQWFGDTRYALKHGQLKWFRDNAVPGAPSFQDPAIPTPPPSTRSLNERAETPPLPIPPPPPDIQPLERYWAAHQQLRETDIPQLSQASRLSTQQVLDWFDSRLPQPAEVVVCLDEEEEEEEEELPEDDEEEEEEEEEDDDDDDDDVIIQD

[3] = molecular target: T3, sorting nexin 33, transcript variant 1 (human, UniProt Q8WV41 1-574)
T3 construct: HuProt array protein, full-length recombinant from yeast; also called SNX33
T3 sequence: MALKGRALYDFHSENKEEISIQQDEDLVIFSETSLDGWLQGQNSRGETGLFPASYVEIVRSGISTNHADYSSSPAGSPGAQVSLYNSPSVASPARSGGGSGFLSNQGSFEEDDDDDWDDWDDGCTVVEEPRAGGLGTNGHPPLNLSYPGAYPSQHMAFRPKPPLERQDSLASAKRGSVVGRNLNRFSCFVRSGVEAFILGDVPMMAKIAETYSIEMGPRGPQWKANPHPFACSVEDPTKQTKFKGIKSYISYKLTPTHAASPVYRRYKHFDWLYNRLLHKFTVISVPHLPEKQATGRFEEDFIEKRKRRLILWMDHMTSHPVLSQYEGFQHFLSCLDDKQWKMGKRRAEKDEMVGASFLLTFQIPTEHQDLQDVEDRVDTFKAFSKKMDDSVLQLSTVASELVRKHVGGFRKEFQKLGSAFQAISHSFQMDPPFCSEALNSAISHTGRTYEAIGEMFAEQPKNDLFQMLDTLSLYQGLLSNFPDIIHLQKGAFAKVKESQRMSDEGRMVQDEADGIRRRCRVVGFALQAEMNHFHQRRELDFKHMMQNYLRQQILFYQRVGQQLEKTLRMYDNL

[4] = molecular target: T4, KH RNA binding domain containing, signal transduction associated 2, transcript variant 2 (human, UniProt Q5VWX1 1-349)
T4 construct: HuProt array protein, full-length recombinant from yeast; also called KHDRBS2
T4 sequence: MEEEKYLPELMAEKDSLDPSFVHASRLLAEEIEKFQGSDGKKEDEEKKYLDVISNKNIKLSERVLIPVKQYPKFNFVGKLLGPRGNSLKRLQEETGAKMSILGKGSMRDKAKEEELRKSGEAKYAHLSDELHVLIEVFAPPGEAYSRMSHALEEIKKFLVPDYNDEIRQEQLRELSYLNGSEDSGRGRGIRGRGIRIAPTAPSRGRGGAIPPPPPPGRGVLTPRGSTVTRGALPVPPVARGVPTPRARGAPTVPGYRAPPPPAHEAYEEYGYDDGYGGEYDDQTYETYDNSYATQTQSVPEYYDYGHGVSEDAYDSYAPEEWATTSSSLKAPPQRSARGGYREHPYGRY

[5] = molecular target: T5, FA complementation group G (human, UniProt O15287 1-622); assay: protein array
T5 construct: on protein array; also called FANCG
T5 sequence: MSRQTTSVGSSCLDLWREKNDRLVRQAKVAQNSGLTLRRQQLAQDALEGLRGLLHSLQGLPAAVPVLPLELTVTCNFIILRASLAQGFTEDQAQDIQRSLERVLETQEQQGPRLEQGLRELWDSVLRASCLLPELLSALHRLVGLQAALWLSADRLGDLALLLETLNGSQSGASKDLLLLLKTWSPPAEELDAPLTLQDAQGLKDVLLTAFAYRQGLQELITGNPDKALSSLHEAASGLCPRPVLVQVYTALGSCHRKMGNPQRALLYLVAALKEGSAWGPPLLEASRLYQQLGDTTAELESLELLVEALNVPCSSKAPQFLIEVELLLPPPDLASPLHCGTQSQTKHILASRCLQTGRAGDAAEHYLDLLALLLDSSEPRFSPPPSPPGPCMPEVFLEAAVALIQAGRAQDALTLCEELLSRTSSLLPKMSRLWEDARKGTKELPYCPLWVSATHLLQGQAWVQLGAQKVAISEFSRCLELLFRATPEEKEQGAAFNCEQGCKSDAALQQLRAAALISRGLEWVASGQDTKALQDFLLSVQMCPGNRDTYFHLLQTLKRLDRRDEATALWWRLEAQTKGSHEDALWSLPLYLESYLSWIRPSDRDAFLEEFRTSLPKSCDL

extended synaptotagmin 2 = molecular target: T6, extended synaptotagmin 2 (human, UniProt A0FGR8 564-921)
T6 construct: HuProt array protein; labelled _frag; also called ESYT2_frag
T6 sequence: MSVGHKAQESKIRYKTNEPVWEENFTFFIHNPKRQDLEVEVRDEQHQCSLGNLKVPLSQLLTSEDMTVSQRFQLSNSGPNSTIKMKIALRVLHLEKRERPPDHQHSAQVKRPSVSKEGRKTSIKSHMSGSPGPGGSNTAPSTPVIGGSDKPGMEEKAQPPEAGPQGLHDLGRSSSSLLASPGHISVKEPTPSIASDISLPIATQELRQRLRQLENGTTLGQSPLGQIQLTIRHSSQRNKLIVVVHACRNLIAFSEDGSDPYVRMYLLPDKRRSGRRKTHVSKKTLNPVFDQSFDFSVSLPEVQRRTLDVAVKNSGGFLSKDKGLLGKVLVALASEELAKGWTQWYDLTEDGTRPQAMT

[6] = molecular target: T7, phospholipid scramblase 4, transcript variant X4 (human, UniProt Q9NRQ2 1-329)
T7 construct: HuProt array protein, full-length recombinant from yeast; also called PLSCR4
T7 chain: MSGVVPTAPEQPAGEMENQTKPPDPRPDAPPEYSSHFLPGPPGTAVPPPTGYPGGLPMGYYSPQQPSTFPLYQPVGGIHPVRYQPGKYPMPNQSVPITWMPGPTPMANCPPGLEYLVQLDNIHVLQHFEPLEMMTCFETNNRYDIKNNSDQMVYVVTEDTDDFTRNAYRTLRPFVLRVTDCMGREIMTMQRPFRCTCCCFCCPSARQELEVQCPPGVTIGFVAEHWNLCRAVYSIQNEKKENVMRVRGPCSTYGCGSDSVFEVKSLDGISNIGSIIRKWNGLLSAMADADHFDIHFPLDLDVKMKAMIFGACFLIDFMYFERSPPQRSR

[7] = molecular target: T8, TruB pseudouridine synthase family member 1 (human, UniProt Q8WWH5 2-349)
T8 construct: HuProt array protein, full-length recombinant from yeast; also called TRUB1
T8 sequence: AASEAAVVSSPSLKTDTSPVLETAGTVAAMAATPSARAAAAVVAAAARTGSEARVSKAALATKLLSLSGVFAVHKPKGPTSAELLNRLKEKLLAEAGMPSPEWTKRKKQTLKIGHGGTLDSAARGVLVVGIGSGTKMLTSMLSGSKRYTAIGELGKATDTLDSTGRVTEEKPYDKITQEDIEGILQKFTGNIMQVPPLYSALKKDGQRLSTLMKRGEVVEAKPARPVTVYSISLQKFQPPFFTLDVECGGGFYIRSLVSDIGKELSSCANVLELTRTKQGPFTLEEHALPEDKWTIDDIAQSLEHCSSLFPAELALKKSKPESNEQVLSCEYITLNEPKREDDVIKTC

B1: TCOL1006 (antibody, V domains shown)
VH: EVQLVESGGGLVQPGGSLRLSCAASGFPPRSFAMSWVRQAPGKGLEWVSSISGLGNSIYYAESVKGRFITSRDNSKSTVFLLMNSLRAEDTAVYYCAKSAFGGVPDGFDIWGQGTMVTVSS
VL: QSVVTQPPSASGPPGQTVTISCSGGRSNVASHAVHWYQHLPGTAPKLLIYNDHQRPSGVPDRFSGSKSGPSASLAISGLRSEDEADYYCATWDDSLGGRVVFGGGTKLTVLG
notes: detected with anti-human IgG Fc
Q: Does B1 bind [1]?
A: Result: binds

Q: Does B1 bind [2]?
A: Result: binds

B2: TCER1006 (antibody, V domains shown)
VH: EVQLVQSGAEVKKPGESLKISCKGSGYSFTSFWIGWVRQMPGKGLEWMGIIFPADSDTRYSPSFQGQVIISVDKSISTAYLQWSSLKASDTAMYYCARRGVSGGSAWTYYNFFDPWGQGTLVTVAS
VL: PSVLTQPPSVSAAPGQKVTISCSGSSSNIDNNYVSWYQQLPGTAPKLLIYENNKRASGIPDRFSGSKSGTSATLGITGLQTGDEADYYCGTWDSSLSPGGVFGGGTKLTVLG
notes: as for B1
Q: Does B2 bind [3]?
A: Result: binds

B3: TCHO1001 (antibody, V domains shown)
VH: PVHLVQSGAEVKKPGSSVKVSCKLSGGIFSYFAIIWVRQAPGQGLEWMGTIIPIFGTSNYAEKFQDRVAIVADEATSTVYMEVNSLRSEDTAIYFCARDSEVEKSDGYMASTAEYFQLWGQGTLVTVSS
VL: not shown
notes: detected with anti-human IgG Fc; also called TCH01001
Q: Does B3 bind [4]?
A: Result: binds

B4: TBRE1024 (antibody, V domains shown)
VH: PVQLQESGPGLVKPSETLSLTCTVSGGSISSDNYYWSWLRQHPGKGLEWIGYIYFSVTTYYNPSLKSRVTISLDTSKNQFSLKLSSVTAADTAVYYCASGYVSFDLWGQGTLVTVSS
VL: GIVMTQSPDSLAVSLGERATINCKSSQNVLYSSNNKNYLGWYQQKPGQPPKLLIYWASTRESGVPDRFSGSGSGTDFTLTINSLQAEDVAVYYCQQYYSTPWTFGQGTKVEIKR
notes: VH/VL only
Q: Does B4 bind [5]?
A: Result: binds

B5: TCOL1004 (antibody, V domains shown)
VH: QVQLQESGPGLVKPSQTLSLTCIVSGGSISGDKNFWSWVRQHPEKGLEWLGYISYNGNTYYNPSLISRIIISLDTPKNLFSLRLSSVTVADTAIYYCAREVDIRGDSDAFDIWGRGTVVTVSS
VL: EIVMTQSPATLSVSPGERATLSCRASQSVSTNLAWYQQRPGQAPRLFIFGASTRATGIPARFSGSGSGTEFTLTISSPQPEDSAVYYCQQYTTRPLTFGGGTKVEIKR
notes: as for B1
Q: Does B5 bind (extended synaptotagmin 2)?
A: Result: binds

B6: TCER1003 (antibody, V domains shown)
VH: QITLKESGPTLVKPTQTLTLTCTFSGFSLTTTDVGVGWIRQPPGKALEWLTIIYWDDDERYSPSLKSRLTITKDTSKNQVVLSMTNMDPVDTATYYCARVYSTKWDFDYWGQGTLVTVSS
VL: VSSELTQDPAVSVALGQTVRITCQGDSLRRYYVSWYRQKPGEAPVVVIYGKNNRPSWIPDRLSGSSSGNTASLTITGAQAEDEADYYCCSRDSSGNPWVFGGGTKLTVLG
notes: as for B1
Q: Does B6 bind [6]?
A: Result: binds

Q: Does B6 bind [7]?
A: Result: binds
